Substrate: C[C@@](O)(CCO)CC(=O)O
Experiment: purified protein
Settings: pH 8.5; 55.0 °C

B1: Ta1305 (mevalonate-3-kinase) (Thermoplasma acidophilum DSM 1728) (protein)
chain: MTYRSIGSTAYPTIGVVLLGGIANPVTRTPLHTSAGIAYSDSCGSIRSETRIYADEATHIYFNGTESTDDNRSVRRVLDRYSSVFEEAFGTKTVSYSSQNFGILSGSSDAGAASIGAAILGLKPDLDPHDVENDLRAVSESAGRSLFGGLTITWSDGFHAYTEKILDPEAFSGYSIVAFAFDYQRNPSDVIHQNIVRSDLYPARKKHADEHAHMIKEYAKTNDIKGIFDLAQEDTEEYHSILRGVGVNVIRENMQKLISYLKLIRKDYWNAYIVTGGSNVYVAVESENADRLFSIENTFGSKKKMLRIVGGAWHRRPE
Protein B1 has a Km of 97 ± 6 µM.
